Measured values reported in article PMC6051998.
Blank lines part the entries; values can stand above or below the substance they belong to.

How the values were obtained:
[1] = biological target: Drp1 short GG (minimal GTPase-GED construct of Drp1, short splice variant) (human) (UniProt O00429); assay: SEC-MALS; GG constructs after 30 min at room temperature with the transition-state analog GDP.AlFx (2 mM GDP, 4 mM MgCl2, 2 mM AlCl3, 20 mM NaF); Drp1 GG 25 μM, Dyn1 GG and GG-PRD 15 μM; Superdex 75 10/300 GL
[2] = biological target: MffΔTM (residues 1–217), dimeric variant; assay: SEC-MALS; MffΔTM (100 μM) and GST (100 μM) on Superose 6 10/300 GL
[3] = biological target: glutathione S-transferase (GST); assay: as above

Chain of glutathione S-transferase (GST) (enzyme) (P08515 2-218): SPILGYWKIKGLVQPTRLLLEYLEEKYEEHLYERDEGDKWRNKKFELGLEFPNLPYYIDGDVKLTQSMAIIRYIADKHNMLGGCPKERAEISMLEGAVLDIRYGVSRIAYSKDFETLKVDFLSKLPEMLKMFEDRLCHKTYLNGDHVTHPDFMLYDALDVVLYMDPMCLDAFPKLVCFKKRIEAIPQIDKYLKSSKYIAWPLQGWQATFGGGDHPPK

stoichiometry N [1]: 2
Substance: Drp1 short GG (minimal GTPase-GED construct of Drp1, short splice variant) (from UniProt O00429-4 1-327; O00429-4 1-327) (domain or fragment)

stoichiometry N [2]: 2
Substance: MffΔTM (residues 1–217), dimeric variant (domain or fragment)

stoichiometry N [3]: 2
Substance: glutathione S-transferase (GST) (enzyme)
